Data set [1] can be described thus: folding stability dG unfold from trypsin proteolysis; higher = more stable. An outline of the steps: (§1)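 K50 was inferred by Bayesian fitting of sequencing counts obtained after protease digestion of designed mini-proteins. Unfolding free energy was derived by comparison with a sequence-predicted unfolded-state K50 and a shared folded-state K50, for each protease or both combined. The mini-proteins were under 80 residues, had no cysteine, were carried in a PA-tagged cDNA display construct, and were kept only if AlphaFold2 dimer inter-PAE exceeded 15.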

A short description of data set [2]: folding stability dG unfold from chymotrypsin proteolysis; higher = more stable. An outline of the steps:
as §1

The nature of data set [3]: folding stability dG unfold (combined trypsin and chymotrypsin); higher = more stable. An outline of the steps: as §1

± gives the half width of the 95% confidence interval.

For the sequence “SAGGSAGGSGSMTTTTDPNSDITVSSIGSPSGPPVTATLNPKTGTVTVTVGGTPVTIPLDALSSAGGSAGGS [r12_650_JUSTAS]”, the results for the “folding stability dG unfold” value in data set [1], in data set [2] and in data set [3] were 0.331 ± 0.059 kcal/mol, 1.32 ± 0.034 kcal/mol and 0.987 ± 0.045 kcal/mol, respectively.

For the sequence “SAGGSAGGSGSSSLLEETTDASGVRHLLTLVRLPGGKVLLVTTTVYPSGESTTTTEETDGSLLSAGGSAGGS [r12_995_JUSTAS]”, the “folding stability dG unfold” value came out at 2.58 ± 0.06 kcal/mol in data set [1], 1.53 ± 0.036 kcal/mol in data set [2] and 2.11 ± 0.059 kcal/mol in data set [3].

As to “SAGGSAGGSGSSSMPVTVEVKPLATEVDPSNGLVTVTELVTVTRGDTTTLTVTTTTLPPGAPASAGGSAGGS [r12_1010_JUSTAS]”, the “folding stability dG unfold” value was determined as 1.16 ± 0.027 kcal/mol in data set [1], 0.00037 ± 0.064 kcal/mol in data set [2] and 0.591 ± 0.098 kcal/mol in data set [3].

For “SAGGSAGGSGSSTSANAGGIVTSSSTVPLPPDTRPVSVSTSTPSSKPVKTTVLPDKTVTTPLGSAGGSAGGS [r12_994_JUSTAS]”, the “folding stability dG unfold” value in data set [1] amounted to 1.01 ± 0.035 kcal/mol; in data set [2], 1.55 ± 0.028 kcal/mol; in data set [3], 1.38 ± 0.048 kcal/mol.

Take “SAGGSAGGSGVEITLPNKDELIEYLKKKFAEKGGKIKKIKIEPIGPNMYKALIETDPNDPYFKSAGGSAGGS [r12_647_TrMRF]”: the results for the “folding stability dG unfold” value in data set [1], in data set [2] and in data set [3] were 0.759 ± 0.069 kcal/mol, 0.532 ± 0.17 kcal/mol and 0.611 ± 0.13 kcal/mol, respectively.

Take “SAGGSAGGSGYTTTTSTSISLSPTSFTVTTTTTTTDPVTKTTTVTTTTTTVPLPPSLLSLVSSSAGGSAGGS [r12_885_JUSTAS]”: the “folding stability dG unfold” value in data set [1] amounted to 2.21 ± 0.17 kcal/mol; in data set [2], 2.97 ± 0.052 kcal/mol; in data set [3], 2.5 ± 0.2 kcal/mol.

In the case of “SAGGSAGGSIEIFKSPEGWYVRIWFPGKPQVIPIDDAEDLKNFEIPIPNGRPIKVEILPPKDLSAGGSAGGS [r12_730_TrROS]”, the results for the “folding stability dG unfold” value in data set [1], in data set [2] and in data set [3] were 1.66 ± 0.047 kcal/mol, 2.32 ± 0.032 kcal/mol and 2.13 ± 0.059 kcal/mol, respectively.

As for “SAGGSAGGSIFIHWTYEMEHERDPDDPDEPRMKMKIKDWVISIPEDDPDKLKELADKLGIPIISAGGSAGGS [r12_249_TrROS]”, the “folding stability dG unfold” value in data set [1] came out at 0.577 ± 0.087 kcal/mol; in data set [2] it was 1.69 ± 0.068 kcal/mol; in data set [3], 1.24 ± 0.11 kcal/mol.

On to “SAGGSAGGSIKIPPGQMIHIRYEHGGKKREYSFTIDPNDGKIDEIIPPDNLPGYKIEEIHIVPSAGGSAGGS [r12_6_TrROS]”, for which the results for the “folding stability dG unfold” value in data set [1], in data set [2] and in data set [3] were -0.431 ± 0.33 kcal/mol, 0.729 ± 0.3 kcal/mol and 0.307 ± 0.34 kcal/mol, respectively.

With “SAGGSAGGSIKITIYDIMRMLGPNAPPAEWVEKVKHLAKWLADKLGLPDVEIEVEVMSPDQFPSAGGSAGGS [r12_666_TrROS]”, the “folding stability dG unfold” value in data set [1] came out at 3.3 ± 0.25 kcal/mol; in data set [2], 4.49 ± 0.13 kcal/mol; in data set [3], 4.06 ± 0.17 kcal/mol.

For “SAGGSAGGSILVIKIKFPGNGRPIHYPIKDPEDFDRVLKKAKERFPGYDKDNIKEAEIYPLPPSAGGSAGGS [r12_852_TrROS]”, the “folding stability dG unfold” value in data set [1] was -0.436 ± 0.22 kcal/mol; in data set [2], -0.00689 ± 0.29 kcal/mol; in data set [3] it was -0.0696 ± 0.17 kcal/mol.

In the case of “SAGGSAGGSISIDPAKVLEVKTRANGQLLITTEDEVYVVDPSTGTVTKITKEEAEKLPEDVPLLSAGGSAGG [r6_890_JUSTAS]”, the “folding stability dG unfold” value worked out at 1.9 ± 0.042 kcal/mol in data set [1], 1.94 ± 0.037 kcal/mol in data set [2] and 1.96 ± 0.15 kcal/mol in data set [3].

With “SAGGSAGGSITPEEAKALAEEIKKALGVPDVEVLEIRVERDPERDFYTADIVIRLPDGSVIRASAGGSAGGS [r12_508_TrMRF]”, the “folding stability dG unfold” value in data set [1] came out at 2.05 ± 0.051 kcal/mol; in data set [2], 1.04 ± 0.064 kcal/mol; in data set [3] it was 1.7 ± 0.11 kcal/mol.

Turning to “SAGGSAGGSITVEVEVEIVDEVEDPNTQGYRPVRVSRIPITIPVPESWSEEDIEAAVKEAIEKASAGGSAGG [r6_494_JUSTAS]”, the “folding stability dG unfold” value in data set [1] came to 1.1 ± 0.047 kcal/mol; in data set [2], 2.13 ± 0.022 kcal/mol; in data set [3] it was 1.7 ± 0.15 kcal/mol.

“SAGGSAGGSIVFRSPEQAKEWLDNFPPGNEVNIHVQGPDTGQPQEFEIKIPPPKPEYDPDGKPSAGGSAGGS [r12_393_TrROS]”: the “folding stability dG unfold” value in data set [1] was -0.124 ± 0.088 kcal/mol; in data set [2] it was -0.773 ± 0.54 kcal/mol; in data set [3], -0.169 ± 0.32 kcal/mol.

Turning to “SAGGSAGGSKAGQPIEGPVKIKFTSNGKPHEIDVEVYVLPPGNLIIYFPDESIMLPADNIEIESAGGSAGGS [r12_790_TrROS]”, the “folding stability dG unfold” value in data set [1] was determined as 1.09 ± 0.072 kcal/mol; in data set [2] it was 1.91 ± 0.078 kcal/mol; in data set [3], 1.6 ± 0.063 kcal/mol.

For “SAGGSAGGSKEEIRKRIAERLRELIPDAKITSIEFDEKTKKITITVDSPEVREALEKLPGIKPSAGGSAGGS [r12_623_TrROS_Hall]”, the “folding stability dG unfold” value in data set [1] stood at 1.49 ± 0.037 kcal/mol; in data set [2] it was 1.63 ± 0.088 kcal/mol; in data set [3], 1.53 ± 0.11 kcal/mol.

Turning to “SAGGSAGGSKEKVIEIKIKVKTKEEAKKKAEELAKELEKKGYKIKKVEIKYDKETKEVTVRIESAGGSAGGS [r20_155_TrROS_Hall]”, the “folding stability dG unfold” value in data set [1] stood at 3.9 ± 0.2 kcal/mol; in data set [2], 4.02 ± 0.097 kcal/mol; in data set [3] it was 3.95 ± 0.12 kcal/mol.

In the case of “SAGGSAGGSKEKYIKIVVEVNGEKKVIVVKAKTIEELEELAKKLNLEVEIEKREDGYLVIRLKSAGGSAGGS [r12_810_TrROS_Hall]”, the “folding stability dG unfold” value in data set [1] was determined as 3.21 ± 0.053 kcal/mol; in data set [2], 3.36 ± 0.058 kcal/mol; in data set [3], 3.29 ± 0.058 kcal/mol.

With “SAGGSAGGSKELLKNLPPGAKITVEKKEDGTVRITITNKDGSEKEIEIKVNGKIIKLTIKKKPSAGGSAGGS [r20_50_TrROS_Hall]”, the “folding stability dG unfold” value was determined as 2.04 ± 0.098 kcal/mol in data set [1], 0.245 ± 0.42 kcal/mol in data set [2] and 1.04 ± 0.32 kcal/mol in data set [3].

Regarding “SAGGSAGGSKETLTIKIKVEVKDENGEKKEVTVTLTIKAETKEEAEALLKELKEKYPNVKVEPSAGGSAGGS [r12_1043_TrROS_Hall]”, the “folding stability dG unfold” value in data set [1] is 2.7 ± 0.38 kcal/mol; in data set [2] it was 2.9 ± 0.11 kcal/mol; in data set [3] it was 2.93 ± 0.23 kcal/mol.

For the sequence “SAGGSAGGSKGKKITIILPPGMPPDAIKNWLAPLGINITIEPIPVVKPKRDPDDGEETYEPYGSAGGSAGGS [r12_80_TrROS]”, the “folding stability dG unfold” value was 0.73 ± 0.1 kcal/mol in data set [1], 0.596 ± 0.24 kcal/mol in data set [2] and 0.579 ± 0.2 kcal/mol in data set [3].

Turning to “SAGGSAGGSKITSIEEKDGFVRITIEVDGKTETKTIPKENLPPNITFPPGAKVKIEKVSKEDLSAGGSAGGS [r12_1005_TrROS_Hall]”, the “folding stability dG unfold” value in data set [1] amounted to 0.449 ± 0.04 kcal/mol; in data set [2], 1.74 ± 0.043 kcal/mol; in data set [3], 1.32 ± 0.073 kcal/mol.

As to “SAGGSAGGSKITSIQPHDGFWRIEIKPDGKPQERWINMDELPPNIKIPPGYKVKIEPFSPGDMSAGGSAGGS [r12_1005_TrROS]”, the “folding stability dG unfold” value in data set [1] is -0.0148 ± 0.14 kcal/mol; in data set [2], -0.769 ± 0.92 kcal/mol; in data set [3], -0.26 ± 0.26 kcal/mol.

With “SAGGSAGGSKKAEELAKKLGLEVEIVKVEKKKDGSEVVIVKIKNKDGSELTLVVKDGKVELFPSAGGSAGGS [r12_279_TrROS_Hall]”, the “folding stability dG unfold” value in data set [1] amounted to 1.79 ± 0.081 kcal/mol; in data set [2], 2.44 ± 0.073 kcal/mol; in data set [3], 2.24 ± 0.079 kcal/mol.

For “SAGGSAGGSKKALVVFYNPETGEVEVLEVEGDADLLKELFEPGTVVEIRVGDEVITIYPEDLKSAGGSAGGS [r20_36_TrMRF]”, the “folding stability dG unfold” value is 1.51 ± 0.085 kcal/mol in data set [1], 2.41 ± 0.054 kcal/mol in data set [2] and 2.11 ± 0.058 kcal/mol in data set [3].

Consider “SAGGSAGGSKKIKIKVKVKNPKTKKYYEIEIEISEEELKEGKLTKEQIKKELEKLGYEVEIVPSAGGSAGGS [r20_221_TrROS_Hall]”, for which the “folding stability dG unfold” value in data set [1] worked out at 3.26 ± 0.15 kcal/mol; in data set [2], 2.6 ± 0.07 kcal/mol; in data set [3], 2.9 ± 0.095 kcal/mol.

Turning to “SAGGSAGGSKKKITRIVITDFDPETGKVTVRIRNENGEEETIEVETLEELKELFPDVEVEVIPSAGGSAGGS [r12_403_TrROS_Hall]”, the “folding stability dG unfold” value in data set [1] was 2.45 ± 0.049 kcal/mol; in data set [2] it was 2.09 ± 0.044 kcal/mol; in data set [3], 2.24 ± 0.059 kcal/mol.

In the case of “SAGGSAGGSKKKKIEIIIVMSKEEAEKIAEELKKKYNIKEIKIKVIPLKKNSPKVKELLKKLKSAGGSAGGS [r12_649_TrROS_Hall]”, the figures for the “folding stability dG unfold” value in data set [1], in data set [2] and in data set [3] were 1.03 ± 0.071 kcal/mol, 1.92 ± 0.12 kcal/mol and 1.62 ± 0.37 kcal/mol, respectively.

In the case of “SAGGSAGGSKKKKKKVKKKKVYRVKIKTKDGKLIEIEVSVEDLEKIKKAAEKAGFEIVEIEPVSAGGSAGGS [r12_891_TrROS_Hall]”, the “folding stability dG unfold” value was determined as 2.39 ± 0.076 kcal/mol in data set [1], 3.86 ± 0.18 kcal/mol in data set [2] and 3.42 ± 0.2 kcal/mol in data set [3].

Take “SAGGSAGGSKKKKKVKYKIKVINPEKPEVKEIEIEAENEEEAKKLAEELAKKYPGVKVEIEKTSAGGSAGGS [r12_601_TrROS_Hall]”: the “folding stability dG unfold” value turned out to be 1.08 ± 0.07 kcal/mol in data set [1], 2.95 ± 0.064 kcal/mol in data set [2] and 2.48 ± 0.095 kcal/mol in data set [3].

Consider “SAGGSAGGSKKKPYIIKIYYKDPKTKKKSKKEILVSGKVKNPEKFAKEAAKKLGPVGKVEFKPSAGGSAGGS [r12_942_TrMRF]”, for which the “folding stability dG unfold” value is -0.0324 ± 0.084 kcal/mol in data set [1], 0.757 ± 0.15 kcal/mol in data set [2] and 0.537 ± 0.098 kcal/mol in data set [3].

As for “SAGGSAGGSKKKVKVEIVEYDPETKKVTVRVTVDGKEYEFTFSTPEELEAAAKAGKIDEITLTSAGGSAGGS [r12_421_TrROS_Hall]”, the “folding stability dG unfold” value turned out to be 2.26 ± 0.059 kcal/mol in data set [1], 2.29 ± 0.043 kcal/mol in data set [2] and 2.26 ± 0.066 kcal/mol in data set [3].

“SAGGSAGGSKKPKAKIKKIEFFPEGNKIVALVEFPDKVIKEIVFENLPPEEAIKKALEFAKKGSAGGSAGGS [r20_181_TrMRF]”: the figures for the “folding stability dG unfold” value in data set [1], in data set [2] and in data set [3] were 1.08 ± 0.036 kcal/mol, 1.42 ± 0.039 kcal/mol and 1.31 ± 0.12 kcal/mol, respectively.

Take “SAGGSAGGSKKTVLVRITVTLPNGEKREIELEVEVDSVEDLKELLKKLPLPPGMKVTIEVVPASAGGSAGGS [r20_162_TrROS_Hall]”: the “folding stability dG unfold” value came out at 4.48 ± 0.31 kcal/mol in data set [1], 3.4 ± 0.2 kcal/mol in data set [2] and 4.16 ± 0.31 kcal/mol in data set [3].

(Values after the supplement of paper PMC12764529.)
